{"source": "the DeepSol protein solubility set", "data": [{"experiment": "soluble on expression in E. coli; label from the status in PepcDB or PDB records", "values": [{"sequence": "MNIEEIKIMGGFNKFGESEKVKELVVKRGEIFGVVGPTGSGKSNLISDIEQLAQGDTPSNRKILVNGNVPDTEMRRDPRKRRIAQLSQNMNFLADMTVEEFLIMHAKSRGMNSEGIVDKVIKLANNLTGEPIEKDYNLTILSGGQSRSLMVADVAVISDSPIVLIDEIENAGIKKHEALELLAGCGKIVMVITHDPVLALMTTRRVVMRNGGMNEIIETTE", "soluble on expression in E. coli": "not soluble"}, {"sequence": "SFAAEITLTTPDNFALKADYYPSKNSVKPANNRAVLMLHQCNYNRTMYNNIGAQLAQQSIHALSLDFRGFGESISSEFNVADVRKLPQAERGKAWSNMSSHWPEDVQLAFDYLKEKVGNNGKVGIIGASCGGSQAINLAEKENISAISFFSSSQRDENIARYGKTLVDTPTLIIASEDDGRTFTSAQQLFSTAKNPSSKMISYKGSMHGYPLLASDKALETTIVTWFSNEL", "soluble on expression in E. coli": "not soluble"}, {"sequence": "MGSDKIHHHHHHMSETENNELTAGKQSKEPRSNQKLKLLYLAKILLNNTDANHDITLDEILNKLHAYDVTAARKSLYDDIAQLNDFGIKTQKTQYGRTVHYKVIGRAFELAELKLLVDSVAAAKFITEEKSNELIKKLESLTSRQEAATLQRQVYVAGRVKTMNSDIMKNVDAIHNAIANNSSLSFQYCRWNTKKELEVKHDGARYHVSPWGLLWNDGNYYLIGYDHDTQVKDIRHYRVDKMKNILIENKVREGREKLKKLDIASYGKSKFGMYNGEEIKAEILCKNSAIGVLIDRFGTDVTILKKDEAHSRVFVKVADNKLFIHWIMAMGDNFKIIGPENLVKEVHDELNRLAKQYELAD", "soluble on expression in E. coli": "not soluble"}, {"sequence": "MGSDKIHHHHHHMMEKVTQMIAMLIKAWKKESVSQIDTPPVPATPEPKQQSPNNSACLTERVNTFLQTHYDFRYNRLTEETEFRPLSGAKTEFRPIGKRELNTLCMEAHAEGISCWDKDVSRYIYSTQIGEYHPFRLYMDELPPWDGIDRLTPLARRVSALPLWVKGFHTWMLGLAAQWEGKTGVHANSLAPILISAEQGRMKSTFCKSLMPKVLQRYYMDNLKLTSEGQAERLLSEMGLINLDEFDKYAESKMPLLKNLMQMSSLHVCKAYQRNFRDLPRIASFIGTSNRSDLMSDPTGSRRFFCVEVEKPINCEGIEHEQIFAQLKAELADGCPYWFDKETEREIQQNNAPFYRTCPAEEVFLSCFRTSASAEEKYLRLSAADIYKELKKRNAAALRGFNPNHFAQVLIKMGVERKHTEYGNVYLVVRR", "soluble on expression in E. coli": "not soluble"}, {"sequence": "MSLLIVQKYGGTSMGSIERIHNVAQRVLESVTLGHQVVVVVSAMSGETDRLLEFGKNFSHNPNKREMDRIVSVGELVSSAALSMALERYGHRAISLSGKEAGILTSSHFQNAVIQSIDTKRITELLEKNYIVVIAGFQGADIQGETTTLGRGGSDLSAVALAGALKAHLCEIYTDVDGVYTTDPRIEEKAQKIAQISYDEMLELASMGAKVLLNRSVELAKKLSVKLVTRNSFNHSEGTLIVAEKDFKGERMETPIVSGIALDKNQARVSMEGVEDRPGIAAEIFGALAEYRINVDMIVQTIGRDGKTDLDFTIVKTQIEETKQALKPFLAQMDSIDYDENIAKVSIVGVGMKSHSGVASIAFKALAKDNINIMMISTSEIKISVLIDIKYAELAVRTLHAVYQLDQEGHHHHHH", "soluble on expression in E. coli": "not soluble"}, {"sequence": "SKMTYADGTPIANIKSDLIRTRINGDQMSPLLKKAIISTEDEYFEEHHGVVPKALVRALISDATGIGGSSGGSTLTQQLVKQQILTDETTFKRKANEILLALRIEKYFSKDEIVTTYLNVSPFGRNNKGENIAGVEEAAKGLFGKSAKDLNLPQAAFIAGLPQSPIVYTPYTNT", "soluble on expression in E. coli": "not soluble"}, {"sequence": "MRGSHHHHHHGAGDRGPEFPEESSPRRTPQSIPYQDLPHLVNADGQYLFCRYWKPTGTPKALIFVSHGAGEHSGRYEELARMLMGLDLLVFAHDHVGHGQSEGERMVVSDFHVFVRDVLQHVDSMQKDYPGLPVFLLGHSMGGAIAILTAAERPGHFAGMVLISPLVLANPESATTFKVLAAKVLNLVLPNLSLGPIDSSVLSRNKTEVDIYNSDPLICRAGLKVCFGIQLLNAVSRVERALPKLTVPFLLLQGSADRLCDSKGAYLLMELAKSQDKTLKIYEGAYHVLHKELPEVTNSVFHEINMWVSQRTATAGTASPPLEVDLQGDHGLSAWSHPQFEK", "soluble on expression in E. coli": "soluble"}]}]}
